According to patent publication US20150080242A1 (UNIVERSITY OF MASSACHUSETTS, published 2015):

B1: OmpG-PEG2-biotin (other)
chain: GEERNDWHFNIGAMYEIENVEGYGEDMDGLAEPSVYFNAANGPWRIALAYYQEGPVDYSAGKRGTWFDRPELEVHYQFLENDDFSFGLTGGFRNYGYHYVDEPGKDTANMQRWKIAPDWDVKLTDDLRFNGWLSMYKFANDLNTTGYADTRVETETGLQYTFNETVALRVNYYLERGFNMDDSRNNGEFSTQEIRAYLPLTLGNHSVTPYTRIGLDRWSNWDWQCDIEREGHDFNRVGLFYGYDFQNGLSVSLEYAFEWQDHDEGDSDKFHYAGVGVNYSF
modifications: maleimide-PEG2-biotin on Cys 224 (D224C, loop 6)
notes: also called OmpG-PEG2-Biotin pore; OmpG-biotin

Columns and labels:
[1] = target: OmpG-PEG2-biotin (Escherichia coli) (UniProt P76045); assay: cell-based or functional assay
[2] = target: OmpG-PEG2-biotin (Escherichia coli) (UniProt P76045); assay: single channel recording of one OmpG-PEG2-biotin pore in a planar lipid bilayer, dwell times of binding events
[3] = target: OmpG-PEG2-biotin (Escherichia coli) (UniProt P76045); assay: single channel recording of one OmpG-PEG2-biotin pore, from koff and kon
[4] = target: OmpG-PEG2-biotin (Escherichia coli) (UniProt P76045); assay: single channel recording of one OmpG-PEG2-biotin pore, inter-event intervals against mAb concentration
[5] = target: OmpG-PEG2-biotin (Escherichia coli) (UniProt P76045); assay: single channel recording of one OmpG-PEG2-biotin pore, 1 nM mAb
[6] = target: T1, BSA (UniProt P02769 25-607); assay: single channel recording in planar lipid bilayer
T1 construct: Control protein
T1 sequence (P02769 25-607 limits assumed): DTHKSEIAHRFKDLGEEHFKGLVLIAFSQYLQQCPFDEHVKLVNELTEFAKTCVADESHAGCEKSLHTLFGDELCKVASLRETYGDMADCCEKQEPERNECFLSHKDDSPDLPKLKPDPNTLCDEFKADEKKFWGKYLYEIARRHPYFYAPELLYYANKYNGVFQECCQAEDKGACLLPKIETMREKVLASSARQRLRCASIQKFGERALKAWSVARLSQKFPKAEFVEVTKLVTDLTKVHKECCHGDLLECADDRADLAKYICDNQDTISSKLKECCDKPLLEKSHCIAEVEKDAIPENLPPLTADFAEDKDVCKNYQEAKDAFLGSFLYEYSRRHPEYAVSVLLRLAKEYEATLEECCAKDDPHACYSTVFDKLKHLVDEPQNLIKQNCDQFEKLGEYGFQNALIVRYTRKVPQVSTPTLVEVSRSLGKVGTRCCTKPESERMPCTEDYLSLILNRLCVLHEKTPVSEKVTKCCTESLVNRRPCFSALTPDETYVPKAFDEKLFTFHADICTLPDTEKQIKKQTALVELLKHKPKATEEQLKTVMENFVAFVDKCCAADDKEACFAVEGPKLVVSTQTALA

Molecule | Event frequency [1] [s⁻¹] | Gating duration [1] [s] | Inter-event duration [1] [s] | Open probability [1] | Relative conductance of open state (%) [1] [%] | open probability of the mAb bound state at -50 mV [1] | koff [2] [s⁻¹] | Kd [3] [nM] | kon [4] [M⁻¹ s⁻¹] | mean inter-event interval at 1 nM mAb [5] [s] | binding result [6]
Mouse anti-biotin monoclonal antibody (MS-1048-P1, Thermo Scientific) | 201 | 4.2 | 3.67 | 0.52 | 86.4 | 0.4 | 0.25 | 11.2 | 2.3e+07 | 74.5 | –
B1 | – | – | – | – | – | – | – | – | – | – | no binding (tested: 1 µM)
